Data published in the supplement of paper PMC10567573.
± gives the standard deviation.

Test: protein stability index of a GFP-peptide fusion (GPS, HEK-293T) (PSI 1-6); higher = more stable
[1] = treatment: DMSO, c terminus: a fixed tail appended
[2] = treatment: MLN4924 1 uM, 8 h, c terminus: a fixed tail appended
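Note: 24-mer peptide tiles fused after GFP, lentivirally expressed, FACS-sorted into six equal bins by GFP/DsRed ratio, decoded by Illumina sequencing, PSI is the read-weighted mean bin number.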

| Sequence | protein stability index [1] | protein stability index [2] | protein stability index (treatment: DMSO, c terminus: native) | protein stability index (treatment: MLN4924 1 uM, 8 h, c terminus: native) |
| --- | --- | --- | --- | --- |
| HTLLNELERNPNGVADGVIKSVLW [CDKL4] | 2.58 ± 0.49 | 2.7 ± 0.4 |  |  |
| DLVFVIDGSKSLGEENFEVVKQFV [MATN2] | 2.38 ± 0.35 | 2.44 ± 0.49 |  |  |
| KVLRRWVDEEWPKRERGDPSRHF [EDARADD] |  |  | 3.21 ± 0.43 | 3.42 ± 0.2 |
| YQELNYRSVEEAPVYSVPQLLSAM [SCNN1D] | 2.49 ± 0.34 | 2.69 ± 0.29 |  |  |
| AQSAGTQQVAAVSSVSPATPFQSV [BRD3] | 4.42 ± 0.19 | 4.37 ± 0.11 |  |  |
| LPCTSRCPRPCRESAFKLSTGTSR [SCNN1D] | 2.64 ± 0.99 | 2.9 ± 0.38 |  |  |
| NVVTIGLAFFPFLHRLFREKSLDQ [PHTF1] | 2.24 ± 0.32 | 2.3 ± 0.47 |  |  |
| ALGKLLPRETLCTELVLSDCMLSE [LRRC45] | 2.22 ± 0.32 | 2.67 ± 0.45 |  |  |
| ANGTVIAEFILLGLLEAPGLQPVV [OR3A1] | 3.06 ± 0.61 | 2.7 ± 0.35 |  |  |
| IVLDRALHIPMYFFLAILSCSEIC [OR10K2] | 3.1 ± 0.18 | 3.19 ± 0.29 |  |  |
| MAPPAAPGRDRVGREDEDGWETRG [HES6] | 5.2 ± 0.37 | 5.48 ± 0.16 |  |  |
| ALRVLAEQNIIPSATNVTCYYQPA [TENT5C] | 2.31 ± 0.22 | 2.2 ± 0.089 |  |  |
| VGKGEILESLQDGAAESPYAYSNG [RAB40C] | 4.88 ± 0.24 | 4.79 ± 0.2 |  |  |
| MSHAAEPARDGVEASAEGPRAVFV [TFE3] | 4.62 ± 0.13 | 4.86 ± 0.09 |  |  |
| KDHSSSRPSSPRPQKASPNGSISS [BTBD10] | 5.1 ± 0.42 | 4.71 ± 0.97 |  |  |
| QIEEVFISEEIQMSTKESDFLCLL [MIA2] | 2.51 ± 0.42 | 2.49 ± 0.37 |  |  |
| RALEEANTELEVKIRDWYQRQAPG [KRT17] | 3.37 ± 0.16 | 3.58 ± 0.4 |  |  |
| SALTEGAKEEGGEEVAKAVLEQEE [EPB41L3] | 5.63 ± 0.3 | 5.54 ± 0.41 |  |  |
| DVHDDVRLLSDATVEKDESHAGKV [FAM50A] | 5.52 ± 0.26 | 5.43 ± 0.23 |  |  |
| EIIKVTEQLIEAINNGDFEAYTKI [CAMK2D] | 2.47 ± 0.12 | 2.63 ± 0.29 |  |  |
| EEDLQSQSETQGLEGAQAPLAVEE [MAGEA10] | 5.73 ± 0.14 | 5.75 ± 0.089 |  |  |
| VAQCLRDLVAMQWADAAGEAVPEG [ZSWIM9] | 2.92 ± 0.33 | 3.06 ± 0.36 |  |  |

| Sequence | protein stability index [1] | protein stability index [2] | protein stability index (treatment: DMSO, c terminus: native) | protein stability index (treatment: MLN4924 1 uM, 8 h, c terminus: native) |
| --- | --- | --- | --- | --- |
| YTDNSIRPEELLQMELLLVNKLKW [CCND1] | 2.14 ± 0.12 | 2.37 ± 0.29 |  |  |
| SRKPSLKGNREDSARMSAGLPGPE [PLEKHN1] | 4.85 ± 0.35 | 4.87 ± 0.2 |  |  |
| CRGIPRGPVRPAIPPPLSSVYAWG [NEK8] | 2.3 ± 0.36 | 2.35 ± 0.43 |  |  |
| IEIVHISTVQILTEGFPPGGGNAR [ZFYVE21] | 2.51 ± 0.67 | 2.72 ± 0.74 |  |  |
| GGEYQEPGGNVKGVWAPPAPGFGE [BEX5] | 4.05 ± 0.53 | 4.38 ± 0.31 |  |  |
| PRPPSNPPARGTLKTSNLPEELRK [TRAF3IP2] | 4.71 ± 0.2 | 4.79 ± 0.3 |  |  |
| IATGPFVAFGIEADDESLLRTSNG [DNAAF3] | 3.9 ± 0.16 | 4.01 ± 0.22 |  |  |
| ELPLLTPCSKAVMSQALKATFSGF [ETS2] | 2.62 ± 0.28 | 2.06 ± 0.65 |  |  |
| PSLQPSRKLSPTEPKNYGSYSTQA [SCAMP3] | 4.4 ± 0.35 | 4.5 ± 0.22 |  |  |
| PGYPKMIAHDFPGIGHKVDAVFMK [MMP1] | 2.75 ± 0.17 | 3.02 ± 0.33 |  |  |
| TALHIACYNGQDAVVNELIDYGAN [ANKRD44] | 2.69 ± 0.27 | 2.86 ± 0.24 |  |  |
| TLTWDSGNPEPVSYYIIQHKPKNS [PTPRD] | 2.69 ± 0.12 | 3.05 ± 0.41 |  |  |
| RADAHLGSSSVALPKEASDGTGAS [TOR1AIP2] | 5.5 ± 0.24 | 5.33 ± 0.12 |  |  |
| VLNTQGQKTSGQHMIQGAGSLEKA [DLC1] | 4.19 ± 0.42 | 4.23 ± 0.33 |  |  |
| LKGGLQEVAEQLELERIGPQHQAG [CNOT7] | 4.67 ± 0.14 | 4.94 ± 0.22 |  |  |
| NMLKNIELFDKLSLRFNGRVLFIK [KCTD10] | 2.68 ± 0.48 | 2.43 ± 0.35 |  |  |
| PGEPNNAGNNEHCGNIKAPSLQAW [CD207] | 4.38 ± 0.12 | 4.21 ± 0.078 |  |  |
| LSSAVWPGGETEALTRLERHLERK [CRY1] | 4.44 ± 0.22 | 4.27 ± 0.061 |  |  |
| SALPFITYLENKGHRYPCFFNTLH [POP5] | 2.34 ± 0.46 | 2.19 ± 0.42 |  |  |
| MATSELSCEVSEENCERREAFWAE [TCAP] | 5.07 ± 0.079 | 5.08 ± 0.32 |  |  |
| KTQIVCKHFLEAIENNKYGWFWVC [ZC3H15] | 2.62 ± 0.52 | 3.09 ± 0.54 |  |  |
| HQQNKIKDLQKEQKTLQVKCQHYK [CEP70] | 4.11 ± 0.28 | 4.6 ± 0.21 |  |  |

| Sequence | protein stability index [1] | protein stability index [2] | protein stability index (treatment: DMSO, c terminus: native) | protein stability index (treatment: MLN4924 1 uM, 8 h, c terminus: native) |
| --- | --- | --- | --- | --- |
| GPSLPSKRESPGVGGGSGDEASAA [ZBTB22] | 5.5 ± 0.34 | 5.64 ± 0.48 |  |  |
| VPDVKEMEKSSFTEYIESPDVENE [TAF7L] | 5.59 ± 0.17 | 5.61 ± 0.23 |  |  |
| HNCAHFCINIPGSYVCRCKQGYIL [MATN2] | 2.48 ± 0.2 | 2.71 ± 0.27 |  |  |
| VLADLHSAEQLKAQAIDFINRCSV [SPOPL] | 2.15 ± 0.14 | 2.29 ± 0.39 |  |  |
| SRIKVLETSYQQREERLRRENEEL [FBF1] | 4.9 ± 0.18 | 5.07 ± 0.26 |  |  |
| DLKQALPCVAESPTVHVEVHQRGS [TRIP13] | 4.51 ± 0.31 | 4.57 ± 0.11 |  |  |
| HSQNLAKQQRNEVSFVIHNLPIIA [SEPHS2] | 2.14 ± 0.089 | 2.25 ± 0.22 |  |  |
| GTQHMFEDDPSVLYVSLHRYDHGT [HDAC6] | 2.34 ± 0.37 | 2.5 ± 0.45 |  |  |
| RRLLVKDPKRRMTIAQSLEHSWIK [DAPK3] | 2.67 ± 0.25 | 2.82 ± 0.4 |  |  |
| TFLSRILTGLNYEAPKYHIPYWVA [NSDHL] | 2.77 ± 0.67 | 3 ± 0.63 |  |  |
| AMEAVRVNPLHVDSTWLLLRRIRA [SLC25A39] | 2.66 ± 0.41 | 2.81 ± 0.19 |  |  |
| SASRKSAEQLRIELNAEKFKNSLL [WEE1] | 3.2 ± 0.3 | 3.29 ± 0.38 |  |  |
| FVVLAFLTGVLCSYPNPNEDKCPG [TMEM192] | 2.92 ± 0.52 | 3.22 ± 0.46 |  |  |
| TVMMWPLAVYHRLWDRAYVRLKPA [RETREG3] | 2.34 ± 0.23 | 2.27 ± 0.15 |  |  |
| GPIGGMMPPQPGIPQQQGMRPPMP [ZNF207] | 4.35 ± 0.3 | 4.36 ± 0.27 |  |  |
| CYAAMKKKIYAMGGGSYGKLFESV [GAN] | 2.16 ± 0.39 | 2.23 ± 0.45 |  |  |
| IIRLVRVFRIFKLSRHSKGLQILG [KCNA4] | 2.25 ± 0.53 | 2.3 ± 0.4 |  |  |
| FRDEKDYPASTSQDSFEAAGNSTS [KCNA3] | 5.55 ± 0.25 | 5.47 ± 0.077 |  |  |
| DVTADSKVLEALKLKGAEVTYMNM [PLD5] | 3.57 ± 0.21 | 3.44 ± 0.29 |  |  |
| RDPPRPGPSRPAEKPPRPEAKSAQ [GCH1] | 5.33 ± 0.35 | 5.1 ± 0.045 |  |  |
| FRALAPMYYRGSAAAIIVYDITKE [RAB22A] | 2.27 ± 0.36 | 2.16 ± 0.54 |  |  |
